Measured values reported in the supplement of paper PMC9112550, “Optimization of the antimicrobial peptide Bac7 by deep mutational scanning” (BMC Biology, 2022).

test system: Escherichia coli TOP10; assay: shrunken log2 fold change of peptide-encoding DNA abundance (4.5 h post-induction vs induction); higher = less antimicrobial activity (less host growth inhibition); details: time post-induction: 4.5 h; library: site-saturation at positions 5, 18, 19, 20
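Also: peptides expressed intracellularly from a pBAD plasmid library in pooled LB shake-flask culture, induced with 0.3% L-arabinose, DNA abundance read by NGS, three biological replicates, DESeq2 with apeglm shrinkage.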

Sequence | shrunken log2 fold change
RRIRGRPPRLPRPRPRPFSLPRP | -0.693
RRIRARPPRLPRPRPRPDMTPRP | 0.723
RRIRLRPPRLPRPRPRPGTKPRP | 0.2
RRIRCRPPRLPRPRPRPSCRPRP | -0.685
RRIRVRPPRLPRPRPRPHPKPRP | 0.0188
RRIRTRPPRLPRPRPRPANQPRP | -0.102
RRIRARPPRLPRPRPRPMFWPRP | 0.19
RRIRARPPRLPRPRPRPPHMPRP | 0.661
RRIRERPPRLPRPRPRPRLPPRP | 0.35
RRIRLRPPRLPRPRPRPCERPRP | -0.0471
RRIRHRPPRLPRPRPRPGYGPRP | -0.318
RRIRNRPPRLPRPRPRPDPWPRP | 0.106
RRIRERPPRLPRPRPRPLMCPRP | -0.267
RRIRNRPPRLPRPRPRPQKYPRP | 0.125
RRIRNRPPRLPRPRPRPMKWPRP | 0.0456
RRIRSRPPRLPRPRPRPGHFPRP | -0.0564
RRIRIRPPRLPRPRPRPIREPRP | -0.0273
RRIRCRPPRLPRPRPRPGPGPRP | 0.709
RRIRFRPPRLPRPRPRPRYLPRP | -0.0779
RRIRARPPRLPRPRPRPQQFPRP | 0.097

Sequence | shrunken log2 fold change
RRIRVRPPRLPRPRPRPDRRPRP | 0.206
RRIRTRPPRLPRPRPRPFDSPRP | -0.258
RRIRGRPPRLPRPRPRPDEQPRP | -0.0342
RRIRARPPRLPRPRPRPWAHPRP | 0.0535
RRIRERPPRLPRPRPRPMVQPRP | 0.00276
RRIRIRPPRLPRPRPRPCGCPRP | -0.248
RRIRYRPPRLPRPRPRPMKRPRP | -0.0321
RRIRQRPPRLPRPRPRPDSIPRP | -0.00697
RRIRLRPPRLPRPRPRPERYPRP | -0.0429
RRIRRRPPRLPRPRPRPSLQPRP | 0.334
RRIRGRPPRLPRPRPRPAIKPRP | 0.534
RRIRCRPPRLPRPRPRPQFTPRP | -0.427
RRIRMRPPRLPRPRPRPMCRPRP | 0.0713
RRIRHRPPRLPRPRPRPRGLPRP | 0.369
RRIRDRPPRLPRPRPRPVFRPRP | 0.18
RRIRNRPPRLPRPRPRPQDMPRP | 0.0124
RRIRIRPPRLPRPRPRPPMNPRP | -0.368
RRIRGRPPRLPRPRPRPANIPRP | -0.0276
RRIRERPPRLPRPRPRPSLPPRP | -0.19
RRIRIRPPRLPRPRPRPPACPRP | 0.498

Sequence | shrunken log2 fold change
RRIRWRPPRLPRPRPRPQYKPRP | -0.696
RRIRQRPPRLPRPRPRPMWPPRP | 0.269
RRIRERPPRLPRPRPRPTNCPRP | -0.165
RRIRPRPPRLPRPRPRPQEAPRP | 0.0203
RRIRCRPPRLPRPRPRPMGWPRP | 0.324
RRIRRRPPRLPRPRPRPFNDPRP | 0.0417
RRIRVRPPRLPRPRPRPFIQPRP | -0.449
RRIRCRPPRLPRPRPRPGGEPRP | 0.538
RRIRFRPPRLPRPRPRPPPTPRP | 1.39
RRIRIRPPRLPRPRPRPHVFPRP | 0.064
RRIRKRPPRLPRPRPRPWIQPRP | -0.01
RRIRKRPPRLPRPRPRPAVMPRP | 0.881
RRIRTRPPRLPRPRPRPHRFPRP | -0.0213
RRIRFRPPRLPRPRPRPQSHPRP | -0.243
RRIRCRPPRLPRPRPRPWGNPRP | -0.256
RRIRTRPPRLPRPRPRPYKCPRP | -0.372
RRIRRRPPRLPRPRPRPQWIPRP | 0.064
RRIRYRPPRLPRPRPRPDPNPRP | -0.57
RRIRGRPPRLPRPRPRPMVCPRP | 0.55
RRIRKRPPRLPRPRPRPWREPRP | 0.184
